Experimental data reported in patent US5495006A, “Antiviral polynucleotide conjugates” (Allelix Biopharmaceuticals, Inc., priority 1993, dated 1996).

Legend:
[1] = tested on: HIV-1 Tat-derived peptide RKKRRQRRRPPQGS (Human immunodeficiency virus 1); experiment: EMSA
[2] = tested on: HSV-1; experiment: Plaque reduction assay, HSV-1 in Vero cells; type: cell-based, herpes simplex virus type I; conditions: for % Inhibition (plaque reduction, HSV-1 replication): Vero cells, estimation
Procedure: Specifically, monolayers of cells were pretreated by incubation with one of conjugates (III) and (IV), infected with various concentrations of HSV-1 (measured by plaque forming units, PFU) and the infected cells were then incubated in the presence of conjugate. Following incubation with the conjugate, the cells were stained using the conventional crystal violet staining method. Those portions of the cell monolayer appearing as clear, unstained areas were identified as dead, virally-infected cells (i.e. plaques), while those areas stained purple indicated viable cells. Thus, inhibition of the virus was determined by counting, using a dissecting microscope, the number of plaques. The number of plaques on a plate incubated in the presence of conjugate was compared to the number of plaques on a control plate incubated in the absence of conjugate and the extent of viral inhibition was thus determined.
Vero cells (African green monkey kidney cells, ATCC CCL 81) were seeded into a 96-well plate at a concentration of 2×10^4 cells per well in 50 μl of Dulbecco's modified eagle medium (DMEM, Gibco). The media was supplemented with 10% Nu-serum (Biomedical Products), penicillin (100 IU/ml), streptomycin ([…]) and gentamicin (0.02 mg/ml) obtained from Gibco. The cells were pretreated with polynucleotide conjugate (III) at concentrations of 1 μM and 10 μM by incubation for 24 hours at 37° C. and 5% CO2. Following the incubation, the culture medium was removed from the cells. […]
The media was removed from the cells and the cells were subsequently stained with crystal violet in 70% ethanol:formalin:acetic acid (20:2:1) solution and heat fixed. The average number of plaques per well of each test sample were counted using a dissecting microscope (10-40× magnification). Inhibition was determined as the difference between the number of plaques in the control sample (0 μM conjugate) and the number of plaques in the test sample. […]

[3] = target: T1, HIV-1 Tat full-length (86 aa) (Human immunodeficiency virus 1, UniProt P04608 P04608:1-86); experiment: EMSA; binds efficiently; conditions: tags: American Bio-Technologies, Inc; label: 32P; cyclic dumbbell with UCU bulge
[4] = target: T2, HIV-1 Tat-derived peptide RKKRRQRRRPPQGS (Human immunodeficiency virus 1); experiment: EMSA; 17.8% active RNA; conditions: protein: synthetic; tags: synthetic peptide, American Peptide Co; HIV LAI isolate; label: 5'-32P; linker-bridged hairpin with UCU bulge
T2 chain: RKKRRQRRRPPQGS

[5] = target: T2, HIV-1 Tat-derived peptide RKKRRQRRRPPQGS; experiment: EMSA; Tm 61 C; SEQ 2 in the listing appears to be printed 3'-5'; conditions: protein: synthetic; tags: synthetic peptide, American Peptide Co; HIV LAI isolate; label: 5'-32P; bottom-linked duplex with UCU bulge
[6] = target: T2, HIV-1 Tat-derived peptide RKKRRQRRRPPQGS; experiment: EMSA; 40.1% active RNA; conditions: protein: synthetic; tags: synthetic peptide, American Peptide Co; HIV LAI isolate; label: 5'-32P; linker-bridged hairpin with UCU bulge
[7] = target: T1, HIV-1 Tat full-length (86 aa); experiment: EMSA; pre-formed complex used for competition; conditions: tags: American Bio-Technologies, Inc; label: 5'-32P; hairpin with UCU bulge and 6-nt loop
[8] = target: T2, HIV-1 Tat-derived peptide RKKRRQRRRPPQGS; experiment: EMSA; 10 mM Tris pH 7.5, 50 mM NaCl, 1 mM DTT, 1 mM EDTA, 23 C; 45.9% active RNA; conditions: protein: synthetic; tags: synthetic peptide, American Peptide Co; HIV LAI isolate; label: 5'-32P; hairpin with UCU bulge and 6-nt loop
[9] = target: T2, HIV-1 Tat-derived peptide RKKRRQRRRPPQGS; experiment: EMSA; binds efficiently; conditions: protein: synthetic; tags: synthetic peptide, American Peptide Co; HIV LAI isolate; label: 32P; cyclic dumbbell with UCU bulge
[10] = target: T2, HIV-1 Tat-derived peptide RKKRRQRRRPPQGS; experiment: EMSA; Tm 60 C; conditions: protein: synthetic; tags: synthetic peptide, American Peptide Co; HIV LAI isolate; label: 5'-32P; linker-bridged hairpin
[11] = target: T2, HIV-1 Tat-derived peptide RKKRRQRRRPPQGS; experiment: EMSA; 38.3% active RNA; conditions: protein: synthetic; tags: synthetic peptide, American Peptide Co; HIV LAI isolate; label: 5'-32P; linker-bridged hairpin with UCU bulge

GGAGAUCUGAGCGCUCUCUCC [TAR conjugate 5B]
Kd ([1]; linker B (triethylene glycol) replaces 6-nt loop between the two strands, 42.6% active RNA): 0.95 nM

conjugate (III): 22-deoxyribonucleotide fully hybridized ICP4 DNA-binding site (SEQ ID NOS 6 and 7), strands joined by linker LA HO--(CH2)9--OH (chain 1 CGCTATCGTCCATACCGACCAC; chain 2 GTGGTCGGTATGGACGATAGCG; DNA, backbone not given here; strands joined by nonanediol linker)
% Inhibition (plaque reduction, HSV-1 replication) ([2]; 1 μM conjugate): 25%
% Inhibition (plaque reduction, HSV-1 replication) ([2]; 10 μM conjugate): 50%
Inhibition of HSV-1 (in words) ([2]; plaque reduction assay): inhibit HSV-1

GGAGAUCUGAGCGCUCUCUCC [TAR conjugate 5D]
Kd ([1]; linker D (hexaethylene glycol) replaces 6-nt loop between the two strands, 56.0% active RNA): 0.66 nM

GGAGAUCUGAGCGCUCUCUCC (ssRNA, cyclic 21-mer, linker D at top and bottom of duplex) [cyclic TAR conjugate oligomer 15]
binding result [3]: binds

GGAGAUCUGAGCGCUCUCUCC (ssRNA, two coupled linkers C replace 6-nt loop between the two strands) [TAR conjugate 5CC]
Kd [4]: 0.43 nM

GCUCUCUCCGGAGAUCUGAGC (ssRNA, chemical linker at bottom of duplex between the two strands) [TAR conjugate oligomer 9]
Kd [5]: 2.2 nM

GGAGAUCUGAGCGCUCUCUCC (ssRNA, linker A -O-(CH2)9-O- replaces 6-nt loop between the two strands) [TAR conjugate 5A]
Kd [6]: 0.71 nM

GGAGAUCUGAGCCUGGGAGCUCUCUCC (ssRNA) [TAR 27-mer (oligomer 4)]
binding result [7]: binds
Kd [8]: 0.41 nM

UCUCCUUCGGGAGAUCUGAGCCUGGGAGCUC (ssRNA, cyclic (T4 RNA ligase closed)) [cyclic TAR 31-mer (oligomer 13)]
binding result [9]: binds
binding result [3]: binds

B1: TAR conjugate structure 8 (ssRNA)
RNA: GGAGAUGAGCGCUCUCUCC
modifications: bulge UCU replaced by U-Lc-Lc (two C3 linkers between nt 6 and nt 9); loop closure shown only in structure drawing
Kd [10]: 0.51 nM

GGAGAUCUGAGCGCUCUCUCC (ssRNA, two coupled linkers B replace 6-nt loop between the two strands) [TAR conjugate 5BB]
Kd [11]: 1.13 nM
